Test results: patent US20050113284A1, “Drug for regenerating tissue and vessel and method therefor” (priority 2001, published 2005)

Tests used:
MERMUC self-association [1] = biological target: T1, MERMUC self-association (Homo sapiens, UniProt Q8N307); assay: Suppression of MERMUC self-association by MERMUC cytoplasmic region peptides (β-gal activity, CHO-K1 cells); type: cell-based; conditions: compared among del-1 to del-4; FIG. 16
T1 construct: human MERMUC (full-length; full)/β-galΔα; β-galΔω (E. coli β-galactosidase residues 1-789); β-galΔα (E. coli β-galactosidase lacking residues 12-42); expressed in transfected cells; host or cells: CHO cells (A5); CHO-K1 cells (A6); pcDNA3 vectors
T1 sequence (Q8N307 with tags, fused parts or gaps R136E/DEL182-352/L354P/T442I/D493H limits assumed): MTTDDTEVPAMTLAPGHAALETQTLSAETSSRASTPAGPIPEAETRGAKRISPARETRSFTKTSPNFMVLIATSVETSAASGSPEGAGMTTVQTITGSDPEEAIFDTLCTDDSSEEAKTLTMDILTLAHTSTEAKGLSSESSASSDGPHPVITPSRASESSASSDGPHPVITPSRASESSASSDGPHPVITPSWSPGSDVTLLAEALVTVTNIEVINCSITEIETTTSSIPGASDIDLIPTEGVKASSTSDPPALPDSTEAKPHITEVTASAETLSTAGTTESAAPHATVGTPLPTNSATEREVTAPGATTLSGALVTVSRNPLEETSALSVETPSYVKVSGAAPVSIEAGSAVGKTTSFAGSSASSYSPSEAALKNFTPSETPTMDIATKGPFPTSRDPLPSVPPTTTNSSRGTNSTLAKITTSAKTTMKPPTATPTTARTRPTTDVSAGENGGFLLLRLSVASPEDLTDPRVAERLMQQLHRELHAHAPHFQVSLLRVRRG
From the text: (§1) To validate this prediction and at the same time synthesize a MERMUCMERMUC peptide that is able to suppress MERMUC self-association through the binding to the MERMUC self-association region, the following 4 types of peptides each corresponding to a part of MERMUC cytoplasmic region were synthesized by the method described later: • del-1: amino acid sequence from amino acids 244 to 345 of SEQ ID NO: 10; • del-2: amino acid sequence from amino acids 244 to 380 of SEQ ID NO: 10; • del-3: amino acid sequence from amino acids 244 to 415 of SEQ ID NO: 10; and • del-4: amino acid sequence from amino acids 244 to 450 of SEQ ID NO: 10.
(§2) Each of the cDNA obtained by PCR was digested with HindIII and XhoI and inserted into the HindIII/XhoI site of pcDNA3 vector to obtain an expression vector expressing each of the human MERMUC cytoplasmic region fragments (del-1 to del-4). […]
(§3) Intracellular β-Galactosidase activity of the recombinant cells was measured using Gal-Screen System (Applied Biosystems) according to the accompanying protocol 48 hr after plasmid transfection. […]

MERMUC self-association [2] = biological target: T2, MERMUC self-association (Homo sapiens, UniProt Q8N307, D493H/DEL182-352/L354P/R136E/T442I); assay: as above; type: cell-based; conditions: various concentrations of del-4; FIG. 18
T2 construct: human MERMUC (full-length; full)/β-galΔα; β-galΔω (E. coli β-galactosidase residues 1-789); β-galΔα (E. coli β-galactosidase lacking residues 12-42); expressed in transfected cells; host or cells: CHO cells (A5); CHO-K1 cells (A6); pcDNA3 vectors
T2 sequence (Q8N307 with tags, fused parts or gaps R136E/DEL182-352/L354P/T442I/D493H limits assumed): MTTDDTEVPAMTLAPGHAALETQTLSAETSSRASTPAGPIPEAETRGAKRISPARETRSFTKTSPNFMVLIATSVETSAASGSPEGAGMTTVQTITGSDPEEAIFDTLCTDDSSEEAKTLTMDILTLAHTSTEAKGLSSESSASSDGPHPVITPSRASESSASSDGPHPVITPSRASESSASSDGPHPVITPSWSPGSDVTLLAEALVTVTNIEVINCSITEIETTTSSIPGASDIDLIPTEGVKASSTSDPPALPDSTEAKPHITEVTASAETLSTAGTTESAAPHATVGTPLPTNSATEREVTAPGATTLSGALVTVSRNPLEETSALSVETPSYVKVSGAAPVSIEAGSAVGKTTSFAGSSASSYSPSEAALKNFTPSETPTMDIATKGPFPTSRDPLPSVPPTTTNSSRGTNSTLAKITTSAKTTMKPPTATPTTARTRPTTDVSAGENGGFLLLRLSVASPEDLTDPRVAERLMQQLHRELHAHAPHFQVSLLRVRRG
From the text: as §1, §2, §3

[3] = system: binding of MERMUC and HGF receptor c-Met; assay: Suppression of MERMUC binding to HGF receptor c-Met by MERMUC cytoplasmic region peptides (β-gal activity, CHO-K1 cells); type: cell-based, human
MAP kinase (Erk) = assay: Recovery of HGF-induced MAP kinase activation in MERMUC/293 cells (Western blotting); type: cell-based, human; conditions: MERMUC expressing MERMUC/293 cells transfected with del-4 expression vector vs mock
Procedure: The del-4 protein expression vector produced above was added to Tet-Off/MERMUC expressing recombinant cells (MERMUC/293 cells) (produced in Example 2) and cultured at 37° C. for 48 hr for transfection using GeneJammer Transfection Reagent (STRATAGENE) according to the accompanying protocol.
Cells were similarly transfected with pcDNA3 vector [mock] that lack the cDNA encoding del-4 instead of the del-4 expression vector as a control.
The cells were stimulated with human recombinant HGF (CALBIOCHEM), and cell lysate was prepared according to conventional method immediately after the stimulation to evaluate the activation level of MAP kinase (also referred to as Erk).
The cell lysate was separated by SDS-PAGE, and then subjected to Western blotting according to conventional method using anti-phosphorylated MAP kinase polyclonal antibody (Phospho-p44/42 MAP kinase (Thr202/Thr204) antibody; Cell Signaling Technology) to determine the MAP kinase activation level based on the obtained signal intensity.

suppression of MERMUC self-association (MERMUC self-association [1]): strongest suppression
B1: del-4: MERMUC cytoplasmic region peptide, amino acids 244 to 450 of SEQ ID NO: 10 (protein, listed as Homo sapiens)
chain: VKASSTSDPPALPDSTEAKPHITEVTASAETLSTAGTTESAAPHATVGTPLPTNSATEREVTAPGATTLSGALVTVSRNPLEETSALSVETPSYVKVSGAAPVSIEAGSAVGKTTSFAGSSASSYSPSEAALKNFTPSETPTMDIATKGPFPTSRDPLPSVPPTTTNSSRGTNSTLAKITTSAKTTMKPPTATPTTARTRPTTDVSA
suppression of MERMUC self-association, dose dependence (MERMUC self-association [2]): increased in del-4 dosage-dependent manner
decrease in the binding of MERMUC and HGF receptor c-Met ([3]; compared among del-1 to del-4, FIG. 17): greatest decrease
suppression of the binding of MERMUC and HGF receptor c-Met, dose dependence ([3]; various concentrations of del-4, FIG. 18): increased in del-4 dosage-dependent manner
phosphorylated MAP kinase level after HGF stimulation (MAP kinase (Erk)): a significant level of phosphorylated MAP kinase was observed
